From PMC8635974

Target: M3R-YFP (muscarinic acetylcholine receptor M3 with YFP fused C-terminally) (UniProt P20309)
Experiment: FRET or BRET; single-cell FRET in HEK293T cells transfected with M3R-YFP, Gαq, Gβ1 and mTurquoise2-Gγ2; laminar superfusion with buffer (137 mM NaCl, 5.4 mM KCl, 2 mM CaCl2, 1 mM MgCl2, 10 mM HEPES, pH 7.3) or agonist (ACh 30 µM, Metha, Fur, Are, Guva, Pilo, Mda one after the other in the same cell); amplitudes normalized to ACh; room temperature

UniProt P20309, sequence (P20309 whole entry, the tested form may be a part): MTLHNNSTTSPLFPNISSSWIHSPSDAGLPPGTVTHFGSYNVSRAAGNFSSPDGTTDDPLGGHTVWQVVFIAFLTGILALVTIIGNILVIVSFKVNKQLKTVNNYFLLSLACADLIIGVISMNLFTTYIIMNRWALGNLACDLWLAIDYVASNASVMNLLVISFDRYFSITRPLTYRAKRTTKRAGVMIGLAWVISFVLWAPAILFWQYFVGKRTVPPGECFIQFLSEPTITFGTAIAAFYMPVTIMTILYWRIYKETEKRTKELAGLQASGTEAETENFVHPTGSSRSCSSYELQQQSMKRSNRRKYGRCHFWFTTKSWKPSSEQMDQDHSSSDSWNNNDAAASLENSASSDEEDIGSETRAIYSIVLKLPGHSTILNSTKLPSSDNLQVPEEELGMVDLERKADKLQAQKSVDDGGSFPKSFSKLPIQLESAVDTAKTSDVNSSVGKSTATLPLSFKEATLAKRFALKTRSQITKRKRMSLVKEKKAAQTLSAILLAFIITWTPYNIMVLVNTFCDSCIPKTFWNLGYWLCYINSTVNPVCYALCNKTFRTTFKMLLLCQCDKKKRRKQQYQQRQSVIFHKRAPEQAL

FRET amplitude with Are as agonist, relative to ACh (% of the ACh signal): 20
FRET amplitude with Fur as agonist, relative to ACh (% of the ACh signal): 60
FRET amplitude with Guva as agonist, relative to ACh (% of the ACh signal): 20
FRET amplitude with Mda as agonist, relative to ACh (% of the ACh signal): 8
FRET amplitude with Metha as agonist, relative to ACh (% of the ACh signal): 60
FRET amplitude with Pilo as agonist, relative to ACh (% of the ACh signal): 8
Substance: Gq protein (Gαq, Gβ1 and mTurquoise2-Gγ2) (from UniProt P50148 1-359; P62873 1-340; P59768 1-71) (complex; other documents disagree on this pair)
